# Assay results as given in article PMC9574550, “Protein engineering approach to enhance activity assays of mono-ADP-ribosyltransferases through proximity” (Protein Engineering, Design and Selection, 2022).
# Assays:
# PARP16 = biological target: T1, PARP16 (Homo sapiens, UniProt Q8N5Y8); assay: homogeneous NAD+ conversion assay, dose-response; type: biochemical
# T1 construct: catalytic fragment, MBP-PARP16-Dockerin (PARP16-Dock) on C8 scaffold
# T1 sequence (Q8N5Y8 94-279 limits assumed): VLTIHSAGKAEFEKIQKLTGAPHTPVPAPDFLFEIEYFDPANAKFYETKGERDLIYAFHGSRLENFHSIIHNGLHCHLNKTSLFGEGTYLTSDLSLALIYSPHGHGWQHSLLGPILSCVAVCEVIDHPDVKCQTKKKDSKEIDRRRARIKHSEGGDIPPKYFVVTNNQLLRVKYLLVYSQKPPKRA
# [1] = biological target: C8 scaffold (eight tandem repeats of H. thermocellum CipA cohesin 1) (Hungateiclostridium thermocellum) (UniProt Q06851); assay: SEC-MALS; 35 μM enzyme mixed with C8 scaffold in SEC buffer with 2 mM CaCl2, S200 Increase 10/300; apparent excess of PARP10-Dock (limited C8 scaffold)
# [2] = biological target: C8 scaffold (eight tandem repeats of H. thermocellum CipA cohesin 1) (Hungateiclostridium thermocellum) (UniProt Q06851); assay: SEC-MALS; 35 μM enzyme mixed with C8 scaffold in SEC buffer with 2 mM CaCl2, S200 Increase 10/300; ratio that resulted in no visible unbound PARP10-Dock (saturating conditions)
IC50 (PARP16) [µM],stoichiometry N (PARP10-Dock per C8 scaffold) [1],stoichiometry N (PARP10-Dock per C8 scaffold) [2],Compound
38,,,CN(C)CC(=O)Nc1ccc2[nH]c(=O)c3ccccc3c2c1 [PJ34]
,< 8,7,PARP10-Dock (MBP-PARP10 catalytic fragment-Cel48S dockerin) (from UniProt A3DH67 673-739) (enzyme)
